Measured values reported in publication PMC5599508.

How the values were obtained:
[1] = target: free alpha/beta-tubulin dimers from porcine brain (pig (purified from porcine brain)) (UniProt P02550)
[2] = target: T15 peptide derived from the human α-tubulin αK40 loop (human)
[3] = target: T9 peptide derived from the human α-tubulin αK40 loop (human)

Chain of UniProt P02550 (P02550 whole entry, chain 1 of 2): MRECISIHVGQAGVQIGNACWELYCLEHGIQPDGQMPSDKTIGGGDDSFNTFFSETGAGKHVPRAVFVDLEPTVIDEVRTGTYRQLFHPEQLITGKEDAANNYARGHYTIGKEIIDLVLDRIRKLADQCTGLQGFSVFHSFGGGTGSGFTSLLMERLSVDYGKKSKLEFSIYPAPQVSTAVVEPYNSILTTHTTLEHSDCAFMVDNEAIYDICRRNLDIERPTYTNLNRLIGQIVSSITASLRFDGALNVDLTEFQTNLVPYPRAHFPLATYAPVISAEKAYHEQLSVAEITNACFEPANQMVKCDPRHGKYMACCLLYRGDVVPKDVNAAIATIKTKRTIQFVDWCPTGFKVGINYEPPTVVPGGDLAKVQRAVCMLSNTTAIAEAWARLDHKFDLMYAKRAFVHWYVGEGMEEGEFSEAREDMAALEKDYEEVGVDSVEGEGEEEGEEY
Chain of UniProt P02550 (P02554 whole entry, chain 2 of 2, further chain): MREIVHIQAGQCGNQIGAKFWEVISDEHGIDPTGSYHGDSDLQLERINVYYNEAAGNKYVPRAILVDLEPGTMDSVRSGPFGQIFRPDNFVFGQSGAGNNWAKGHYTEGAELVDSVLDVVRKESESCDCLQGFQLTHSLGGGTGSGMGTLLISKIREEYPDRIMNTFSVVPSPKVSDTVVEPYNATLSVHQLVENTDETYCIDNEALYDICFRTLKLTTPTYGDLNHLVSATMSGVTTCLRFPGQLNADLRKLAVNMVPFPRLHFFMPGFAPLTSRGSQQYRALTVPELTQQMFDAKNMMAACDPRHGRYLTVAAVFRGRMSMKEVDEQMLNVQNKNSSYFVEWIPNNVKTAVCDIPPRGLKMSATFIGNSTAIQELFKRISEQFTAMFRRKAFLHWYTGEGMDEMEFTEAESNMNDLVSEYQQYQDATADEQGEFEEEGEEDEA

## untagged full-length human histone deacetylase 6 (from UniProt Q9UBN7-1 1-1215) (enzyme)
[1]
  KM of the deacetylation of free tubulin dimers by HDAC6 (steady-state kinetics, Western blot quantification): 0.23 µM
[2]
  KM of the deacetylation of the acetylated αK40-derived peptide by HDAC6 (HPLC-based assay): 328 µM
[3]
  KM of the deacetylation of the acetylated αK40-derived peptide by HDAC6 (HPLC-based assay): 88 µM
